Target: T1, dimeric cMet-Fc recombinant protein (rh cMet-Fc, R&D Systems ref. 358-MT/CF) (human, UniProt P08581 25-932)
T1 construct: extracellular domain; Bought reagent; also called cMet extracellular domain fusion protein; recombinant human cMet protein; not shown: Fc part
Test: ELISA on coated dimeric cMet-Fc
Protocol: Obtained hybridomas were initially screened by ELISA on the dimeric cMet-Fc recombinant protein. Briefly, the recombinant human cMet protein was coated overnight at 4° C. to Immulon II 96-well plates and, after a 1 h blocking step with a 0.5% gelatine solution, pure hybridoma supernatant was added for an additional 1 h at 37° C. Then plates were washed and a goat anti-mouse (Jackson) specific IgG HRP was added for 1 h at 37° C. Reaction development was performed using the TMB substrate solution. Then a second screen was performed by FACS analysis on […] cell line, that express moderate to high levels of cMet, to be sure that the produced antibodies will be able to also recognize the native receptor on tumor cells. For that purpose 2×10⁵ cells were incubated with either 10 μg/ml of m205A5, m227D3 or m10D₉ (IgG1 isotype control Mab) for 20 min at 4° C. After 3 washing in phosphate-buffered saline (PBS) supplemented with 1% BSA and 0.01% NaN₃, cells were incubated with secondary antibody Goat anti-mouse Alexa 488 (dilution 1/500) for 20 minutes at 4° C. After 3 additional washings in PBS supplemented with 1% BSA and 0.1% NaN₃, cells were analyzed by FACS (Facscalibur, Becton-Dickinson). At least 5000 cells were assessed to calculate the mean value of fluorescence intensity.

T1 sequence (P08581 25-932): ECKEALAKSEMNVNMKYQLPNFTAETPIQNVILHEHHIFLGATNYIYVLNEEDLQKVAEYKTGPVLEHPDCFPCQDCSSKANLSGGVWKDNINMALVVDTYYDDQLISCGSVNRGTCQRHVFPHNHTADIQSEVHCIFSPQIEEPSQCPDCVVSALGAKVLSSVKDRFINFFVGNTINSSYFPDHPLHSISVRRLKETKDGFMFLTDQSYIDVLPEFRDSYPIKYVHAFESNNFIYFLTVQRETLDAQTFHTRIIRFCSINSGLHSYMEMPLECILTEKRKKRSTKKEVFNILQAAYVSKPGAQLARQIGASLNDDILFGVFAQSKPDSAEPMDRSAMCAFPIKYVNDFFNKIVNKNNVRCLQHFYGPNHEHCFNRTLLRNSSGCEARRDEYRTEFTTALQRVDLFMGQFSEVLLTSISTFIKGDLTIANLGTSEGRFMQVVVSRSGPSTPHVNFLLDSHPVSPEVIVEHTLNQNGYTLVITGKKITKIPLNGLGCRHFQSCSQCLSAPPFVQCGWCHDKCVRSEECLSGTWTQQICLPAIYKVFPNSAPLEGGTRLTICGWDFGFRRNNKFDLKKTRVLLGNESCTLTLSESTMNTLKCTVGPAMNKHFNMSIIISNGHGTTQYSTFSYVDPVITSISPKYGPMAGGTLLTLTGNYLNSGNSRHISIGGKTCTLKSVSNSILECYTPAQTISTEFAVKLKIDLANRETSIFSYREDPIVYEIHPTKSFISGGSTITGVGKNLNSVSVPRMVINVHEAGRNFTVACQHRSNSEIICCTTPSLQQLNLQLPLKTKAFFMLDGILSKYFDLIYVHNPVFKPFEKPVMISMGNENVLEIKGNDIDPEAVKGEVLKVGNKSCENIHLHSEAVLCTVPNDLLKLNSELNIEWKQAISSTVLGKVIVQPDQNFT

Binder	binding result
205A5 monoclonal antibody (murine, secreted by hybridoma CNCM I-4246) (antibody, V domains shown, Whole murine monoclonal antibody from hybridoma; mouse IgG1 isotype controls were used beside it; also called m205A5; 205A5 Mab) VH: QVQLKQSGPGLVQPSQSLSITCTVSGFSLTDYGIQWVRQSPGQGLEWLGVIWRGGSTDYNAPFMSRLSITKDNSKSQVFFRMNSLQADDTAIYYCATSYYRYDGPFTYWGQGTLVTVSA VL: NIVLTQSPASLAVSLGQRATISCRASESVDSNGNSFIHWYQQKPGQPPKLLIYVASKLESGVPARFSGSGSRTDFTLTIDPVEAEDVATYYCQQNNEYPLTFGAGTKLELK	binds
227D3 monoclonal antibody (murine, secreted by hybridoma CNCM I-4247) (antibody, V domains shown, Whole murine monoclonal antibody from hybridoma; mouse IgG1 isotype controls were used beside it; also called m227D3; 227D3 Mab) VH: EVKLVESGGDLVKPGGSLQLSCAASGFTFSSYAMSWVRQTPEMRLEWVASIMGGGTTYYPDSVKGRFTISRDIARNILNLQMSSLRSEDTAIYYCARGRDYGIRSYAMDYWGQGTSVTVSS VL: DIVMTQAAFSNPVTLGTSVSISCRSSKSLLHSNGITYLYWYLQKPGQSPQLLIYQMSNLASGVPDRFSSSGSGTDFTLRISRVEAEDVGVYYCAQNLELPYTFGGGTKLEIK	binds
